The term Kd denotes the constant that tells how readily two partners part at equilibrium. High values mean weaker binding, low ones tighter binding.

Positions count from the first letter of the chain named. Numbers in names are those of the source. Bounds are passed on as bounds.

From paper PMC5260945 (Nature structural & molecular biology, 2011) come the findings set out here.

The target of one experiment is 15N-labeled Ub (UniProt P0CG47 1-76). The experiment can be described thus: NMR titration.
Experiment [1] addresses Unlabeled Ub (from bovine red blood cells, Sigma-Aldrich) (bovine, UniProt P0CG53 1-76). The experiment can be described thus: NMR titration.

B1: TRABID AnkUBD (aa 245-339) (domain or fragment)
chain: LEVDFKKLKQIKNRMKKTDWLFLNACVGVVEGDLAAIEAYKSSGGDIARQLTADEVRLLNRPSAFDVGYTLVHLAIRFQRQDMLAILLTEVSQQA
B1 had a Kd with 15N-labeled Ub of 134 ± 19 µM. Besides, the binding result in experiment [1] is “binds”.

B2: TRABID AnkUBD H317A (domain or fragment)
chain: B1 chain with H73A
In the experiment with 15N-labeled Ub, B2 yielded a Kd of more than 1200 µM.
